Measured values from the supplement of paper PMC12042874.
± gives the uncertainty stated by the source.

Test: amyloid nucleation score (Sup35N fusion, yeast selection) (log enrichment); library NNK1; higher = more nucleation; inactive = no reads after selection
Summary of the method: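 Libraries of peptides of 20 random codons fused to Sup35N were expressed in psi-negative yeast and induced 24 hours with 100 μM copper sulfate. Selection was 7 days at 30°C on medium lacking adenine and uracil, and plasmid inserts were Illumina-sequenced before and after selection. Nucleation score is the DiMSum log enrichment of output over input reads, centred on the mode score of non-aggregating sequences, and sequences with under 100 input reads were left out.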

| Substance | amyloid nucleation score |
| --- | --- |
| DQVTYRPWLRELRRQAMCLQ | 0.027 ± 1.7 |
| DRDASSLGFIFFFGCLEGLT | -0.93 ± 0.76 |
| DRHRLPILVFLITNRTQRMV | -0.098 ± 1.3 |
| DRLVDTNYRASGYPVRYMVS | -1.31 ± 0.78 |
| DRRIEYVVDLGSSCGMTTHV | 0.049 ± 0.41 |
| DRWDFMQLNCIHLEA | 0.885 ± 0.88 |
| DSADMLILILYAAVLLYTIF | -0.278 ± 0.69 |
| DSAIWDKNFSLDMGSGFMHC | -0.125 ± 1.7 |
| DSCLSYFAILYFRLGFTRMW | inactive |
| DSEDSNLSCLLYTQC | 0.153 ± 0.16 |
| DSFMAENMWGLFFDKSESPA | -0.517 ± 0.95 |
| DSFQGRS | 0.255 ± 0.47 |
| DSIGVTH | -0.002 ± 0.41 |
| DSKPVIILR | -0.516 ± 0.27 |
| DSLGGSKSCGSKL | 0.891 ± 0.97 |
| DSMSRREQG | -0.437 ± 0.73 |
| DSSHVRLWQYWIMWMLVVNA | 1.06 ± 0.39 |
| DSSRNGKF | -0.563 ± 0.64 |
| DSVNRLLSCPINKMLWSNYS | 0.233 ± 0.22 |
| DTSVFWVKIYIFGSISHWAG | 0.606 ± 1 |
| DVKCAVTLVL | -0.055 ± 0.6 |
| DVTLVNFIG | 0.285 ± 0.48 |
| DVYVACTSFDLELCICVMRL | 0.237 ± 0.7 |
| DVYVWGGCLVSIKVLWMAWG | 0.117 ± 0.94 |
| DWHGLTKVMITW | 3.31 ± 0.11 |

| Substance | amyloid nucleation score |
| --- | --- |
| DWNSNPPHSASAGLPLRFWK | inactive |
| DWVVFWIRSFILSPPRAHQN | 0.025 ± 0.41 |
| DYAGWPYLPSMHQATLQDAR | 0.275 ± 1.2 |
| DYCRLMAWLSL | 0.315 ± 0.51 |
| DYDGWQLPMCNNITMTWKVC | 2.7 ± 0.12 |
| DYFIKWFIYRPLTS | -0.504 ± 0.6 |
| DYGVMWI | 0.296 ± 0.41 |
| DYYYSFMKTANR | -0.087 ± 0.3 |
| ECCYWPREK | 0.422 ± 0.32 |
| ECSRGVVIIWDMHVGGIDEC | 1.79 ± 0.41 |
| ECVKTVTLVNYRVLRWSSVC | 0.129 ± 0.35 |
| EDMTLMLNNFSPILAIGWWT | 1.25 ± 0.25 |
| EDNRKIRRVMSIQS | 0.063 ± 0.57 |
| EDNWHLRVQ | 0.088 ± 0.29 |
| EEYNVNCTSFVGRFSRC | -0.008 ± 0.5 |
| EFFRVMPGNT | 3.68 ± 0.13 |
| EFVLGGASRVELY | -0.624 ± 0.64 |
| EFYSVTIGNWAMNRTHWRVN | 0.461 ± 0.69 |
| EFYYMKLRYRVRRKF | -0.716 ± 0.45 |
| EGHWGFWPIGSFTCTSFLVY | 0.86 ± 0.58 |
| EGLLFYEYSSMCVEKDWIKN | -0.136 ± 0.43 |
| EGLNNSLSSYTKDWAQVVLN | -0.079 ± 0.32 |
| EGTSPHMHSIRFTLSQLPSF | 0.236 ± 1.1 |
| EGVNYIMKDVLLVDTKVAEN | -0.175 ± 0.66 |
| EHLLCVSRCMLSSNLVTNCA | -0.113 ± 0.94 |

| Substance | amyloid nucleation score |
| --- | --- |
| EHRLR | 0.477 ± 0.59 |
| EIMKCFNFTHMVEMKSMKRN | 2.62 ± 0.087 |
| EIQGNLNILSLLGLSRRSKG | 0.016 ± 0.72 |
| EIRKNTASMIMKLCIYIVGA | -0.007 ± 0.45 |
| EIVACSWKKELIRAW | -0.209 ± 0.38 |
| EIWWMVKVQLSVEYSSGNRL | 1.16 ± 0.39 |
| EKLNFSNLEGFRGFRLKGSR | -0.271 ± 1.4 |
| ELGPRPHTFLEFAGICVGGM | -0.422 ± 1.4 |
| ELKSPCNVSPIWSRSRQTST | 0.216 ± 0.68 |
| ELLACGIKRRVVKTGVRTAY | -0.407 ± 1.2 |
| ELNPMFKTQHWLNSWNIWLL | 2.47 ± 0.089 |
| ELRSIDTWYPASGCML | -0.187 ± 0.29 |
| ELSDTVFRRVCNLIVMVTPV | 1.05 ± 0.4 |
| ELVISMGRLWVG | 2.02 ± 0.17 |
| ELVLSSSWFRRNSYALCKLR | 0.716 ± 1 |
| EMAFISYH | 0.4 ± 1.1 |
| ENIALIYLECVFKVGSRCFE | 0.198 ± 0.24 |
| ENQPVPLQDLKGAV | -0.352 ± 1.2 |
| ERLFELKCPNFCAELGSDS | 0.24 ± 0.41 |
| ERMGDSQGPKAGLWSFKYP | -0.226 ± 0.97 |
| ERQLKEEY | 0.06 ± 0.33 |
| ESAFHASVGALRMHTSSRVC | 1.09 ± 0.35 |
| ESDPGCPVAVIKGPCT | 0.225 ± 0.8 |
| ESNMGNGSRGIDV | 0.821 ± 1.1 |
| ESTAQSEV | -0.237 ± 0.42 |

| Substance | amyloid nucleation score |
| --- | --- |
| ESVIFFSCTYSSMMVSWTSR | 0.382 ± 1.4 |
| ETARLCRWSYK | 2.22 ± 0.18 |
| ETGSDEI | -0.55 ± 0.39 |
| ETSSPLLEGG | 0.554 ± 0.55 |
| EVAMVYFKCVLFITSDSKQR | -0.823 ± 1.1 |
| EVDFNSSFTWSHMSSKCRMF | -0.046 ± 0.54 |
| EVGMHNMACADSSVCMRSVL | 0.472 ± 0.6 |
| EYAVIGKS | -0.186 ± 1 |
| EYFRSTCRRATLSDPSMMHH | 0.185 ± 0.35 |
| EYGLVRTLPVFRRVRRKYVG | -0.666 ± 0.67 |
| EYGVSLV | 0.089 ± 0.53 |
| EYIYNIAEWVD | -1.05 ± 0.79 |
| EYLFCCVCADLFNTWDKSLG | 7.29 ± 0.052 |
| EYLSMNRLRERSYYLGNRTF | 0.077 ± 0.69 |
| EYNYLDDTCWLGQVGRWLWF | 1.38 ± 0.28 |
| EYRTSSEQTANTFILKPRWA | 1.72 ± 0.4 |
| EYVACVIEDFSVLNVVRQVD | -0.33 ± 0.21 |
| FADIKYLSTFG | -0.045 ± 0.37 |
| FAESSVVSFHLCRQMFASTA | -0.88 ± 0.52 |
| FAHHLYINRMSRFIDARVTI | 2.37 ± 0.13 |
| FALKIVGVVPVAVGMTIDDW | 0.052 ± 0.85 |
| FAQFSAWRTTNGRYKHHFTL | -0.256 ± 0.52 |
| FASRNISG | -0.054 ± 0.5 |
| FASVDTRETSSGMGGISKTG | -0.742 ± 0.56 |
| FAVSIVSFLRASVVDWVWYT | -0.209 ± 0.66 |

| Substance | amyloid nucleation score |
| --- | --- |
| FCAEEGVTRLNPKL | -0.023 ± 0.47 |
| FCDPVYMPSERFWNAYMCTL | 1.19 ± 0.9 |
| FCFILSNVFLGLWMI | -1.37 ± 2.7 |
| FCLIFDGC | inactive |
| FCLNHHMVLYSIRRWNVFVY | -2.16 ± 2.7 |
| FCMTTSVSSNTLV | -0.013 ± 0.94 |
| FCNWANLYGTWLMLCVGSGR | 0.712 ± 0.42 |
| FCSRTRMTICVLCYIHLQGR | 0.521 ± 0.29 |
| FCVSQVFRDLS | -0.315 ± 0.37 |
| FDADGHPLKTPLCMGLSCGG | -0.129 ± 1.6 |
| FDFTNGRISFAFCNNSCCPY | 2.46 ± 0.34 |
| FDLTLCICCLRSECYYITPR | 8.732 ± 0.049 |
| FDLVYACANPTFGINVRTGR | 2.67 ± 0.12 |
| FDLWLVYVRLPGSHDLDLRA | 0.61 ± 0.65 |
| FDNAPMSDLG | 0.405 ± 0.72 |
| FDNLIVYVTVYFFLTYAPFV | 1.41 ± 0.26 |
| FDSLNAYSLSPSMVMKDSRG | 0.17 ± 0.18 |
| FDSVESRTAPTRMILLRTLF | inactive |
| FEHVPLFTTMPIEEFYRIVY | 0.262 ± 0.28 |
| FENFVASFLPNFGITLRKGQ | 0.043 ± 0.24 |
| FENIDLP | -0.364 ± 0.62 |
| FETYFEHYWGCVTYSSMFWS | 2.45 ± 0.14 |
| FFALIYI | 0.357 ± 0.36 |
| FFFRKTSY | 0.552 ± 0.87 |
| FFGFMILNYKFSK | inactive |

| Substance | amyloid nucleation score |
| --- | --- |
| FFGVLNIPNFCVSMF | 0.645 ± 0.69 |
| FFHFTVSGMPGYSRSY | 2.73 ± 0.17 |
| FFLTDITTLHYQSRNRLFLT | -0.581 ± 0.23 |
| FFNDPA | -0.311 ± 0.47 |
| FFNRTKTHEVDADGALSTL | 0.508 ± 0.88 |
| FFRRDFFFYNSLGMH | 0.233 ± 1.4 |
| FFYSNALLWSWIVGYSCTRL | 0.537 ± 0.44 |
| FGASIGDGDFRVM | 0.069 ± 0.53 |
| FGCSSLCTLSTVEE | -1.21 ± 0.64 |
| FGDGIDSNVSMVEN | inactive |
| FGHKCAIFGNWEF | -0.933 ± 0.84 |
| FGHYFDTLKPYSRALWRVVS | -0.641 ± 0.61 |
| FGLKYRSDGVPCPDYLARKY | 0.702 ± 0.51 |
| FGLRFAHAHLINWPWMLSGS | 0.047 ± 0.76 |
| FGNRDFSQSDYNSCVFATGS | 2.2 ± 0.44 |
| FGSLRHCFTFNCNPGMGVWV | 2.53 ± 0.16 |
| FGSSPRSDVVKHQNINEEVI | 0.581 ± 0.61 |
| FHLWHLIVYILALY | -0.955 ± 0.77 |
| FHNRINKPTK | inactive |
| FHPAMVVICILWHKR | 1.62 ± 0.37 |
| FICERPGSRKTTLPTVTVIR | -0.499 ± 0.98 |
| FIGPRN | -1.05 ± 1.2 |
| FINRGAGPTLSRGQSRYNSA | 0.011 ± 0.3 |
| FIRIVRIYSLEFALYLGVFQ | 4.51 ± 0.05 |
| FIVKKFIKSNRLVLMRGSPL | 0.669 ± 0.49 |

| Substance | amyloid nucleation score |
| --- | --- |
| FIWIGRKRRGGICCDEWKYG | 0.196 ± 1.6 |
| FIWSLVGAQAQSTNRVHHLS | 1.3 ± 0.67 |
| FKCKSDAPWPWLHSL | 1.37 ± 0.45 |
| FKLMWNFQDLLVLLLRDRRY | 0.048 ± 0.62 |
| FKLVI | 0.697 ± 0.9 |
| FKSASVRRI | -0.822 ± 0.84 |
| FLACGYMFGFRQSYHRPFRF | 3.35 ± 0.095 |
| FLAYLPSEKC | -0.267 ± 0.44 |
| FLEFVWRALEM | -1.16 ± 0.86 |
| FLFACFMRVAL | 1.46 ± 0.24 |
| FLFLTRRWEFVHMLPVSCEV | -0.817 ± 2.4 |
| FLHRM | 0.062 ± 0.75 |
| FLILVSLGELGVTAI | inactive |
| FLMDNDKIHYGYISSVCTSY | inactive |
| FLMKMKMSVFVLEYSILECM | -1.12 ± 1.1 |
| FLMYFQNRV | 0.624 ± 0.33 |
| FLNVARQV | 0.101 ± 1.4 |
| FLNYVMDVLGGRIRDVWWFT | 0.829 ± 0.66 |
| FLPGQNAIFKTLLVCSTVKV | -0.675 ± 1.2 |
| FLPLMIASVSWRL | 0.455 ± 0.64 |
| FLRALCSVGSRHTTPAFDYG | 0.351 ± 0.43 |
| FLRVILRVYLAVLRGNRQCN | -0.716 ± 0.36 |
| FLVWIMGSFPTGRGANRRNS | -0.465 ± 0.51 |
| FLWIA | -0.012 ± 0.56 |
